Tests used:
[1] = molecular target: recombinant mesothelin tagged with the Fc fragment of rabbit IgG (human) (UniProt Q13421); assay: flow cytometry on cells; inhibition: soluble MUC16 pre-incubated with meso-Fc (25 nM) for 1 h at 4°C; read out as meso-Fc left to bind OVCAR-3 cells
[2] = molecular target: recombinant mesothelin expressed on human epidermoid epithelial A431 cells (human) (UniProt Q13421)
[3] = molecular target: recombinant mesothelin expressed on human epidermoid epithelial A431 cells (human) (UniProt Q13421); remark: listed apart in the source

Sequence of recombinant mesothelin expressed on human epidermoid epithelial A431 cells (human) (Q13421 other isoform, or with tags, fused parts or gaps): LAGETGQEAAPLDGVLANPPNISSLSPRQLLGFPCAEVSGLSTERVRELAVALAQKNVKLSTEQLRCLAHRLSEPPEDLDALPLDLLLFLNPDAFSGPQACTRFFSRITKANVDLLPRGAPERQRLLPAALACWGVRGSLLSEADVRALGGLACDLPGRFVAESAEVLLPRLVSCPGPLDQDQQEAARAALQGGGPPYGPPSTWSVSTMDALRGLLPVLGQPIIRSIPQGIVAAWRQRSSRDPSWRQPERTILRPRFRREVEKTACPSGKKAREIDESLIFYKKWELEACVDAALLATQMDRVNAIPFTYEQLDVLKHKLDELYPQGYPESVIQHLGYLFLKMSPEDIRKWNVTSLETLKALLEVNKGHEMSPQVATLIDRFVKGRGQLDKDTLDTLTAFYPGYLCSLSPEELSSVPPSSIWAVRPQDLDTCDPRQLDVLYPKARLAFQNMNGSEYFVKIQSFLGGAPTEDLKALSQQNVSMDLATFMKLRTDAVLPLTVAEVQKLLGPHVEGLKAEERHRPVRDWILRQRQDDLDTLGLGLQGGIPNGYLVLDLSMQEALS
Sequence of recombinant mesothelin tagged with the Fc fragment of rabbit IgG (human) (Q13421 other isoform, or with tags, fused parts or gaps): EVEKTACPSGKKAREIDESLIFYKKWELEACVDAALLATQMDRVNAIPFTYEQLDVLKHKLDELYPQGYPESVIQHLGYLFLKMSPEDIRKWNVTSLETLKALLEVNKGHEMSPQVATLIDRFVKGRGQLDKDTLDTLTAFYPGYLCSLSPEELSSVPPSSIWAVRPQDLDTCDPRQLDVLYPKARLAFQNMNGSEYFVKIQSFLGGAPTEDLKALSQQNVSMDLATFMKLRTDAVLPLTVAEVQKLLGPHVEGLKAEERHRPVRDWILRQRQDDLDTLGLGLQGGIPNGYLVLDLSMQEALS

In the case of “native MUC16 partially purified from OVCAR-3 cell culture media, Q8WXI7 1-14451”, the percent inhibition of meso-Fc binding to OVCAR-3 cells (MUC16 at half the molar amount of meso-Fc) [1] is reported as 80%.

In the case of “MUC16 expressed on the surface of the ovarian tumor cell line OVCAR-3, Q8WXI7 1-14507”, the reduction of heterotypic cell adhesion between #12 and A431-Meso+ cells by ascites of EOC patients (#15 and #24), flow cytometry [2] is reported as 33% and the heterotypic doublets between MUC16 positive #12 cells and A431-Meso+ cells in PBS with 1% BSA, percent of total live cells, flow cytometry [3] is reported as 25%.
